{"source": "patent US20240124539A1", "about": "“CROSSLINKED HELIX DIMER MIMICS OF SOS AND METHODS OF USING SAME” (NEW YORK UNIVERSITY, priority 2020, published 2024)", "binders": {"B1": {"name": "CHD^Sos-5 (designed binder)", "chain 1": "WIGRLCTEI[hArg]RLRNGN", "chain 2": "Ac-LAWRLRELERELARLC-NH2", "modifications": "linker I:6-II:16 via dibenzylether crosslinker; not fully specified (N-terminus, C-terminus)"}, "B2": {"name": "DZ2-CHD^Sos-5 (designed binder)", "chain 1": "WIGRLCTEIKRLRNGN", "chain 2": "LAWRLRELERELARLC", "modifications": "not checked"}, "B3": {"name": "FITC-CHD^Sos-5 (designed binder)", "chain 1": "Ac-WIGRLCTEI[hArg]RLRNGN-NH2", "chain 2": "{FITC}-[βAla]LAWRLRELERELARLC-NH2", "modifications": "linker I:6-II:17 via dibenzylether crosslinker"}, "B4": {"name": "FITC-CHD^Sos-1 (designed binder)", "chain 1": "Ac-FIGRLCTEILKLREGN-NH2", "chain 2": "{FITC}-[βAla]LAWRLRELERELARLC", "modifications": "linker I:6-II:17 via dibenzylether crosslinker; not fully specified (C-terminus)"}}, "key": {"[1]": {"target": "T1, fluorescently-labeled wild-type H-Ras-GDP (MST), P01112", "assay": "microscale thermophoresis; AFDye 647-labelled wild-type H-Ras-GDP with serial dilutions of the CHD"}, "[2]": {"target": "K-Ras (endogenous, H358 cells) (human), P01116", "assay": "cell-based or functional assay"}, "[3]": {"target": "T2, G12V mutant His6-tagged H-Ras (1-166) pre-loaded with GDP, P01112", "assay": "microscale thermophoresis (column MST); AFDye 647-labelled G12V H-Ras-GDP with serial dilutions of the unlabelled CHD"}, "[4]": {"target": "T1, fluorescently-labeled wild-type …", "assay": "microscale thermophoresis, dye-labelled H-Ras-GDP (5-10 nM), CHD titrated"}, "[5]": {"target": "KRAS (Homo sapiens), P01116", "assay": "photoaffinity crosslinking in H358 cells, TMT MS proteomics"}, "[6]": {"target": "KRAS (Homo sapiens), P01116", "assay": "photoaffinity crosslinking in H358 cells, TMT MS proteomics; vs control probe CP-266"}, "[7]": {"target": "G12C mutant His6-tagged H-Ras (1-166) pre-loaded with GDP, P01112", "assay": "direct fluorescence polarization (FP); fluorescein-labelled CHD titrated with GDP-loaded His6-H-Ras G12C"}, "[8]": {"target": "T3, wild-type His6-tagged H-Ras (1-166) pre-loaded with GDP, P01112", "assay": "direct fluorescence polarization (FP); fluorescein-labelled CHD titrated with GDP-loaded His6-H-Ras"}, "[9]": {"target": "T3, wild-type His6-tagged H-Ras (1-166) …", "assay": "fluorescence polarization, fluorescein-labelled CHD (15 nM), His6-H-Ras-GDP titrated"}, "[10]": {"target": "T2, G12V mutant His6-tagged H-Ras (1-166) …", "assay": "direct fluorescence polarization (FP); fluorescein-labelled CHD titrated with GDP-loaded His6-H-Ras G12V"}, "[11]": {"target": "G12D mutant His6-tagged H-Ras (1-166) pre-loaded with GDP, P01112", "assay": "direct fluorescence polarization (FP); fluorescein-labelled CHD titrated with GDP-loaded His6-H-Ras G12D"}, "[12]": {"target": "T3, wild-type His6-tagged H-Ras (1-166) …", "assay": "direct fluorescence polarization; fluorescein-labelled CHD titrated with GDP-loaded WT H-Ras"}}, "note": "Positions of bridges follow the written chain, without caps; N, C: chain ends. Non-standard residues stand in square brackets, D forms with d. Chains are numbered I, II in the order given. No end group written: not given here. *: point of attachment. dibenzylether crosslinker = scaffold alkylating both cysteine thiols (drawn in Scheme 1 and; FITC = O=C1OC2(c3ccc(O)cc3Oc3cc(O)ccc32)c2ccc(NC(=S)*)cc21; hArg = N=C(N)NCCCC[C@H](N)C(=O)O; βAla = NCCC(=O)O"}
{"binder": "B1", "values": [{"measurement": "EC50 (read off the curve)", "setting": "[1]", "result": 0.2, "unit": "µM"}, {"measurement": "ERK activation levels (ERK phosphorylation, Western blot, H358 cells)", "setting": "[2]", "result": "< 1", "unit": "µM"}, {"measurement": "Kd", "setting": "[3]", "result": 2.7, "unit": "µM"}, {"measurement": "Kd", "setting": "[4]", "result": 0.3, "unit": "µM"}]}
{"binder": "B2", "values": [{"measurement": "Average Abundance", "setting": "[5]", "result": 825}, {"measurement": "Fold", "setting": "[6]", "result": 6.63, "unit": "fold"}, {"measurement": "log2(fold)", "setting": "[6]", "result": 2.73}]}
{"binder": "B3", "values": [{"measurement": "Kd", "setting": "[7]", "result": 16.1, "unit": "µM"}, {"measurement": "Kd", "setting": "[8]", "result": 1.9, "unit": "µM"}, {"measurement": "Kd", "setting": "[9]", "result": 2, "unit": "µM"}, {"measurement": "Kd", "setting": "[10]", "result": 13.4, "unit": "µM"}, {"measurement": "Kd", "setting": "[11]", "result": 17.9, "unit": "µM"}]}
{"binder": "B4", "values": [{"measurement": "Kd", "setting": "[9]", "result": 32, "unit": "µM"}, {"measurement": "Kd", "setting": "[12]", "result": 32.2, "unit": "µM"}]}
